# Data reported in IntAct's records for PubMed 15299139.
# B1: Axial regulator YABBY 4 (Arabidopsis thaliana (Mouse-ear cress)), Q9LDT3 (parent)
# chain: MTKLPNMTTTLNHLFDLPGQICHVQCGFCTTILLVSVPFTSLSMVVTVRCGHCTSLLSVNLMKASFIPLHLLASLSHLDETGKEEVAATDGVEEEAWKVNQEKENSPTTLVSSSDNEDEDVSRVYQVVNKPPEKRQRAPSAYNCFIKEEIRRLKAQNPSMAHKEAFSLAAKNWAHFPPAHNKRAASDQCFCEEDNNAILPCNVFEDHEESNNGFRERKAQRHSIWGKSPFE
# partner: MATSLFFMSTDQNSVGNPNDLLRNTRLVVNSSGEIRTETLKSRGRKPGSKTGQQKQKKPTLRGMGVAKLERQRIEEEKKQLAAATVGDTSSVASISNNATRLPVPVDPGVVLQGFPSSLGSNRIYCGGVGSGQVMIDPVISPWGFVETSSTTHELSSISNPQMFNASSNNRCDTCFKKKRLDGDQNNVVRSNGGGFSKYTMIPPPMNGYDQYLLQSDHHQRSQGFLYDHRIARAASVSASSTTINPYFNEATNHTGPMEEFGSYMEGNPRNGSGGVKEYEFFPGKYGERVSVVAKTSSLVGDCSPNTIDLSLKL
# Variants of: B1
# Conditions: with spl_arath SPL
row,effect of a mutation on the interaction,Variant
1,decreasing interaction,C29S
